We go through 1 substance from publication PMC8126837.

In this experiment the target is human angiotensin-converting enzyme 2 (ACE2) (human) (UniProt Q9BYF1). Nature of the experiment: FRET or BRET.
Chain of human angiotensin-converting enzyme 2 (ACE2) (human) (Q9BYF1 18-740): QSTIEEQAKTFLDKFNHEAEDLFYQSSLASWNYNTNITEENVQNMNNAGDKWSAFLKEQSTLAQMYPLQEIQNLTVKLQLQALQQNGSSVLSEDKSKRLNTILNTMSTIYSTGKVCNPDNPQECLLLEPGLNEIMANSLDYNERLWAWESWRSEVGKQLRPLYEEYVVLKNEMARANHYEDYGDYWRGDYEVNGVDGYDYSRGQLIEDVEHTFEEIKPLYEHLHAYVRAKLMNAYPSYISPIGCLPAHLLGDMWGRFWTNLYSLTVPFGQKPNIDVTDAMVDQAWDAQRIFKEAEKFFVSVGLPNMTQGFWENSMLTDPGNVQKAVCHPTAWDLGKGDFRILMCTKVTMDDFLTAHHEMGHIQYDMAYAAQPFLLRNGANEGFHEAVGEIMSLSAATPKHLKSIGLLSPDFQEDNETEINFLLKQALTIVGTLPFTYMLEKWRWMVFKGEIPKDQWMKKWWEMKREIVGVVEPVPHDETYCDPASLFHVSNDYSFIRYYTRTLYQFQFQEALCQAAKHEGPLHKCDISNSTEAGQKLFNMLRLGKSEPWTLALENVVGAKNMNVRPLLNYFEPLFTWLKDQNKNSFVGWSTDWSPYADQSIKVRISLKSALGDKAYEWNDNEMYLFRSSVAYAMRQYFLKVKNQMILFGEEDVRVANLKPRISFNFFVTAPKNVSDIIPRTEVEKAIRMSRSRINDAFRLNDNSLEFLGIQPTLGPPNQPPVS

In turn, “SARS-CoV receptor-binding domain (RBD) (from UniProt P59594) (domain or fragment)” gave a reduction in complex formation (FRET of SARS-CoV-2 RBD with ACE2) of 70%.
